{"source": "patent US20250268994A1"}
{"target": "delta (India) variant S glycoprotein of SARS-CoV-2 (SARS-CoV-2) (UniProt P0DTC2)", "test": "cell-based or functional assay", "units": {"Preliminary Estimate of IC50 (nM), RVP neutralization": "nM"}}
{"substance": "hsACE2 H374N H378N (variant polypeptide encoded by SEQ ID NO: 6) (from UniProt Q9BYF1 18-740) (receptor)", "Preliminary Estimate of IC50 (nM), RVP neutralization": 8.29}
{"substance": "hsACE2 N90D T92A (variant polypeptide encoded by SEQ ID NO: 5) (from UniProt Q9BYF1 18-740) (receptor)", "Preliminary Estimate of IC50 (nM), RVP neutralization": 2.33}
{"substance": "hsACE2 N90D R273A (variant polypeptide encoded by SEQ ID NO: 4) (from UniProt Q9BYF1 18-740) (receptor)", "Preliminary Estimate of IC50 (nM), RVP neutralization": 2.74}
